# Test results: PMC9850050, “A transaminase with β-activity from Variovorax boronicumulans for the production of enantiopure β-amino acids” (Heliyon, 2022)
# Legend:
# [1] = system: CC(C)C(N)CC(=O)O; test: purified protein; conditions: 5.2 mM 2-oxoglutarate, 0.1 mM PLP, 100 mM potassium borate pH 9, 30 °C, donor 2-10 mM
# Description: (§1) glutamate quantification, Lineweaver-Burk on VboTA (Variovorax boronicumulans ω-transaminase)
# [2] = system: CC(N)CC(=O)O; test: purified protein; conditions: 5.2 mM 2-oxoglutarate, 0.1 mM PLP, 100 mM potassium borate pH 9, 30 °C, donor 2-10 mM
# Description: as §1
# [3] = system: NC(CC(=O)O)Cc1ccccc1; test: purified protein; conditions: 5.2 mM 2-oxoglutarate, 0.1 mM PLP, 100 mM potassium borate pH 9, 30 °C, donor 2-10 mM
# Description: as §1
# [4] = system: NC(CC(=O)O)c1ccccc1; test: purified protein; conditions: 5.2 mM 2-oxoglutarate, 0.1 mM PLP, 100 mM potassium borate pH 9, 30 °C, donor 2-10 mM, Km above tested range
# Description: as §1
# [5] = system: O=C(O)CCC(=O)C(=O)O; test: purified protein; conditions: 10 mM β-phenylalanine, 0.1 mM PLP, 100 mM potassium borate pH 9, 30 °C, 2-8 mM 2-oxoglutarate
# Description: as §1
# [6] = target: T1, VboTA (Variovorax boronicumulans ω-transaminase) (Variovorax boronicumulans, UniProt Z9A1T7NCF1); test: activity at varied substrate concentration; format: biochemical; conditions: substrate inhibition; pH 9, 30 °C
# T1 construct: full length, 433 aa, C-terminal His-tag (pET21b, NdeI/XhoI), codon-optimised, E. coli BL21(DE3), Ni-NTA
# T1 sequence (Z9A1T7NCF1 1-433): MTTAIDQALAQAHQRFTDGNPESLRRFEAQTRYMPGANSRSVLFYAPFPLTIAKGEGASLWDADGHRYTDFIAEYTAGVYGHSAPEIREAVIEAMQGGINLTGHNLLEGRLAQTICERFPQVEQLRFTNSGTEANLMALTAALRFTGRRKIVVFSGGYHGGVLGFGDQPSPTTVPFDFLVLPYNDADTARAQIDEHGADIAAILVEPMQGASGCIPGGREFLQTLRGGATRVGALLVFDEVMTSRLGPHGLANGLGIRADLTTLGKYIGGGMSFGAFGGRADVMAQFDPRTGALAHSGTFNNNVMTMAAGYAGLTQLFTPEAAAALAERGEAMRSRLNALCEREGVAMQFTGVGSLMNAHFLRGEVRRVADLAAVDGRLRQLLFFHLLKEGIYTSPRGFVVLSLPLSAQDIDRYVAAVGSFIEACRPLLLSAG
compound,measurement,setting,value
VboTA (Variovorax boronicumulans ω-transaminase) (Variovorax boronicumulans),Km,[1],44.7 ± 1.2 mM
same,Vmax,[1],48.5 µmol/min
same,kcat,[1],66.5 ± 7.1 s⁻¹
same,kcat/Km,[1],1500 ± 200 M⁻¹ s⁻¹
same,Km,[2],4.4 ± 0.3 mM
same,Vmax,[2],1.4 µmol/min
same,kcat,[2],2 ± 0.2 s⁻¹
same,kcat/Km,[2],450 ± 50 M⁻¹ s⁻¹
same,Km,[3],0.7 ± 0.2 mM
same,Vmax,[3],1.1 µmol/min
same,kcat,[3],1.6 ± 0.07 s⁻¹
same,kcat/Km,[3],2200 ± 100 M⁻¹ s⁻¹
same,Km,[4],24.7 ± 3.8 mM
same,Vmax,[4],20.5 µmol/min
same,kcat,[4],28.1 ± 3.3 s⁻¹
same,kcat/Km,[4],1100 ± 100 M⁻¹ s⁻¹
same,Km,[5],2.1 ± 0.4 mM
same,Vmax,[5],24.9 µmol/min
same,kcat,[5],34.2 ± 2.7 s⁻¹
same,kcat/Km,[5],16200 ± 1300 M⁻¹ s⁻¹
O=C(O)CCC(=O)C(=O)O [2-Oxoglutaric acid],loss of activity at 20 mM,[6],~ 70%
